These are literature values, as cited in patent US5493008A, “Two non-contiguous regions contribute to nidogen binding to a single EGF-like motif of the laminin γ1 chain” (The University Of Virginia Patent Foundation, priority 1994, dated 1996).

For this series, the target named is T1, nidogen (Mus musculus, UniProt P10493).
T1 sequence (P10493 29-1245): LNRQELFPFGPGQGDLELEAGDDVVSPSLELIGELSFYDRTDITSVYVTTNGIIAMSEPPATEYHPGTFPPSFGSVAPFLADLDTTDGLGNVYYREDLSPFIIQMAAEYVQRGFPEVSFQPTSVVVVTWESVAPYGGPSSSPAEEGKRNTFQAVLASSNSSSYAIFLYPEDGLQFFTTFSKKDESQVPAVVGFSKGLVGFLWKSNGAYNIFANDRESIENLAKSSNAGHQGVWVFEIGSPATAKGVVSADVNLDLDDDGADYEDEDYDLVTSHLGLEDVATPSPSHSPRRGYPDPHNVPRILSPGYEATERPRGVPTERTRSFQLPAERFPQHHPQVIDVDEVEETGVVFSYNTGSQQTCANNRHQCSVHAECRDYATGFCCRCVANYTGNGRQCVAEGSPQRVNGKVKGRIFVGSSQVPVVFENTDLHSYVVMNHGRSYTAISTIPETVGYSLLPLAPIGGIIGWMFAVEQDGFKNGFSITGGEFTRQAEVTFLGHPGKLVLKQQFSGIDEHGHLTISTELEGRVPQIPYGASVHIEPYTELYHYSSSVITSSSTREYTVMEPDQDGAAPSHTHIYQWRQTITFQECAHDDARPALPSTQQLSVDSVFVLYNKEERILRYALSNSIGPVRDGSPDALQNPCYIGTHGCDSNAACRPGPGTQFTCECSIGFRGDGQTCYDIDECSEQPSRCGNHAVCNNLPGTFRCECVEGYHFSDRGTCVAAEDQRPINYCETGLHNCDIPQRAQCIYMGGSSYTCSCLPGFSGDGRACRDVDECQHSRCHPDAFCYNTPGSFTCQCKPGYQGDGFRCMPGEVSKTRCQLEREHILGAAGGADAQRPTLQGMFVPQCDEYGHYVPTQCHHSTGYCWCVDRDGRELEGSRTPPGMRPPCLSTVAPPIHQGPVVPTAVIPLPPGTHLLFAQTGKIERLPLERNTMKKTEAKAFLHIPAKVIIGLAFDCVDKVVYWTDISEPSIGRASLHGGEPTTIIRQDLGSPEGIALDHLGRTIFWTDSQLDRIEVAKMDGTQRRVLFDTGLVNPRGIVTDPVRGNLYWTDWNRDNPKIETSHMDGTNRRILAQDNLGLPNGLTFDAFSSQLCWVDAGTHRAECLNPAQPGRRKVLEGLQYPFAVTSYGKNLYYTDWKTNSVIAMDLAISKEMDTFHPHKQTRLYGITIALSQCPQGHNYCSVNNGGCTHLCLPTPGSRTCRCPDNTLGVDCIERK
The conditions noted are these: Fox et al. 1991; read-out: κD of the high affinity binding site for nidogen; cited from earlier work.

For the substance “laminin 1: laminin of chain composition α1β1γ1”, the Kd is 0.5 nM.
